Results as given in the Immune Epitope Database (IEDB).

Legend:
HLA-B*18:01 = assay: IEDB peptide-MHC binding, purified MHC/competitive/radioactivity; filed as Kd, often an IC50 or EC50 that approximates it; ≥ and ≤ were set here for values at or beyond the usual limits of such assays
HLA-B*44:03 = assay: as above
HLA-B*45:01 = assay: as above
HLA-B*40:02 = assay: as above
HLA-B*44:02 [1] = assay: as above
HLA-B*40:01 [2] = assay: as above
HLA-B*46:01 = assay: IEDB peptide-MHC binding, purified MHC/competitive/fluorescence; filed as Kd, often an IC50 or EC50 that approximates it; ≥ and ≤ were set here for values at or beyond the usual limits of such assays; conditions: source organism: Giardia lamblia ATCC 50803
HLA-B*58:01 = assay: IEDB peptide-MHC binding, purified MHC/direct/fluorescence; filed as Kd, often an IC50 or EC50 that approximates it; ≥ and ≤ were set here for values at or beyond the usual limits of such assays; conditions: source organism: Giardia lamblia ATCC 50803
HLA-A*26:01 [3] = assay: as above; conditions: source organism: Giardia lamblia ATCC 50803
HLA-A*03:01 [4] = assay: as above; conditions: source organism: Giardia lamblia ATCC 50803
HLA-B*27:05 = assay: as above; conditions: source organism: Giardia lamblia ATCC 50803
HLA-B*44:02 [5] = assay: as above; conditions: source organism: Giardia lamblia ATCC 50803
HLA-B*40:01 [6] = assay: as above; conditions: source organism: Giardia lamblia ATCC 50803
HLA-A*11:01 = assay: as above; conditions: source organism: Giardia lamblia ATCC 50803
HLA-B*15:01 [7] = assay: as above; conditions: source organism: Giardia lamblia ATCC 50803
HLA-B*08:01 = assay: as above; conditions: source organism: Giardia lamblia ATCC 50803
HLA-A*31:01 = assay: as above; conditions: source organism: Giardia lamblia ATCC 50803
HLA-A*69:01 = assay: as above; conditions: source organism: Giardia lamblia ATCC 50803
HLA-A*01:01 = assay: as above; conditions: source organism: Giardia lamblia ATCC 50803
HLA-B*07:02 = assay: as above; conditions: source organism: Giardia lamblia ATCC 50803
HLA-A*02:01 = assay: as above; conditions: source organism: Giardia lamblia ATCC 50803
HLA-A*26:01 [8] = assay: IEDB peptide-MHC binding, purified MHC/competitive/fluorescence; filed as Kd, often an IC50 or EC50 that approximates it; ≥ and ≤ were set here for values at or beyond the usual limits of such assays; conditions: source organism: Yersinia bercovieri ATCC 43970
HLA-A*03:01 [9] = assay: as above; conditions: source organism: Yersinia bercovieri ATCC 43970
HLA-B*15:01 [10] = assay: as above; conditions: source organism: Yersinia bercovieri ATCC 43970
[11] = source organism: SARS coronavirus Tor2
[12] = source organism: Mammarenavirus machupoense
[13] = source organism: Lymphocytic choriomeningitis virus (strain Armstrong)

## QEAYEQAVA
HLA-B*18:01; [11]
  Kd: 3.87 µM
HLA-B*44:03; [11]
  Kd: 6.86 µM
HLA-B*45:01; [11]
  Kd: 0.0149 µM
HLA-B*40:02; [11]
  Kd: 1.2 µM
HLA-B*44:02 [1]; [11]
  Kd: 17.3 µM
HLA-B*40:01 [2]; [11]
  Kd: ≥ 26 µM

## EEPAALLPLS
HLA-B*18:01; [12]
  Kd: 11.5 µM
HLA-B*44:03; [12]
  Kd: ≥ 20 µM
HLA-B*45:01; [12]
  Kd: 0.211 µM
HLA-B*40:02; [12]
  Kd: 0.859 µM
HLA-B*44:02 [1]; [12]
  Kd: 3.41 µM
HLA-B*40:01 [2]; [12]
  Kd: 12 µM

## KDLQRLRSL
HLA-B*18:01; [13]
  Kd: 5.86 µM
HLA-B*44:03; [13]
  Kd: ≥ 66 µM
HLA-B*45:01; [13]
  Kd: ≥ 43.1 µM
HLA-B*40:02; [13]
  Kd: 0.165 µM
HLA-B*44:02 [1]; [13]
  Kd: ≥ 43.6 µM
HLA-B*40:01 [2]; [13]
  Kd: 4.49 µM

## KDCVMYASAL
HLA-B*18:01; [11]
  Kd: ≥ 70.5 µM
HLA-B*44:03; [11]
  Kd: 11.9 µM
HLA-B*45:01; [11]
  Kd: ≥ 70 µM
HLA-B*40:02; [11]
  Kd: 3.29 µM
HLA-B*44:02 [1]; [11]
  Kd: 10.7 µM
HLA-B*40:01 [2]; [11]
  Kd: ≥ 60.5 µM

## AEVVKLPSRY
HLA-B*18:01; [11]
  Kd: 4.99 µM
HLA-B*44:03; [11]
  Kd: 0.0764 µM
HLA-B*45:01; [11]
  Kd: 9.83 µM
HLA-B*40:02; [11]
  Kd: ≥ 22.2 µM
HLA-B*44:02 [1]; [11]
  Kd: 0.144 µM
HLA-B*40:01 [2]; [11]
  Kd: 15 µM

## AAFLDDNAF
HLA-B*46:01
  Kd: 0.118 µM
HLA-B*58:01
  Kd: ≥ 20 µM
HLA-A*26:01 [3]
  Kd: ≥ 20 µM
HLA-A*03:01 [4]
  Kd: ≥ 20 µM
HLA-B*27:05
  Kd: ≥ 20 µM
HLA-B*44:02 [5]
  Kd: ≥ 20 µM
HLA-B*40:01 [6]
  Kd: ≥ 20 µM
HLA-A*11:01
  Kd: ≥ 20 µM
HLA-B*15:01 [7]
  Kd: 0.106 µM
HLA-B*08:01
  Kd: ≥ 20 µM
HLA-A*31:01
  Kd: ≥ 20 µM
HLA-A*69:01
  Kd: ≥ 20 µM
HLA-A*01:01
  Kd: ≥ 20 µM
HLA-B*07:02
  Kd: ≥ 20 µM

## AEGSRGGSQA
HLA-B*18:01; [11]
  Kd: ≥ 70.5 µM
HLA-B*44:03; [11]
  Kd: 14.6 µM
HLA-B*45:01; [11]
  Kd: 0.205 µM
HLA-B*40:02; [11]
  Kd: 18.8 µM
HLA-B*44:02 [1]; [11]
  Kd: 8.48 µM
HLA-B*40:01 [2]; [11]
  Kd: ≥ 27.9 µM

## REFLTRNPAW
HLA-B*18:01; [11]
  Kd: ≥ 33.4 µM
HLA-B*44:03; [11]
  Kd: 0.00583 µM
HLA-B*45:01; [11]
  Kd: 0.569 µM
HLA-B*40:02; [11]
  Kd: 0.0235 µM
HLA-B*44:02 [1]; [11]
  Kd: 0.00402 µM
HLA-B*40:01 [2]; [11]
  Kd: 0.0502 µM

## EDQLLPFMS
HLA-B*18:01; [13]
  Kd: ≥ 55.5 µM
HLA-B*44:03; [13]
  Kd: ≥ 78.1 µM
HLA-B*45:01; [13]
  Kd: 3.73 µM
HLA-B*40:02; [13]
  Kd: ≥ 65.4 µM
HLA-B*44:02 [1]; [13]
  Kd: ≥ 35.2 µM
HLA-B*40:01 [2]; [13]
  Kd: ≥ 59.3 µM

## AEAAVKPLL
HLA-B*18:01; [11]
  Kd: ≥ 77.5 µM
HLA-B*44:03; [11]
  Kd: 0.0536 µM
HLA-B*45:01; [11]
  Kd: 0.152 µM
HLA-B*40:02; [11]
  Kd: 19.5 µM
HLA-B*44:02 [1]; [11]
  Kd: 0.0608 µM
HLA-B*40:01 [2]; [11]
  Kd: 0.00843 µM

## STFVSAARQG
HLA-B*18:01; [11]
  Kd: 8.68 µM
HLA-B*44:03; [11]
  Kd: 0.394 µM
HLA-B*45:01; [11]
  Kd: 2.01 µM
HLA-B*40:02; [11]
  Kd: 0.535 µM
HLA-B*44:02 [1]; [11]
  Kd: 0.237 µM
HLA-B*40:01 [2]; [11]
  Kd: 8.59 µM

## AEFWDVFLS
HLA-B*58:01
  Kd: ≥ 20 µM
HLA-A*26:01 [3]
  Kd: ≥ 20 µM
HLA-A*03:01 [4]
  Kd: ≥ 20 µM
HLA-B*27:05
  Kd: ≥ 20 µM
HLA-B*44:02 [5]
  Kd: ≥ 20 µM
HLA-B*40:01 [6]
  Kd: 0.0499 µM
HLA-A*11:01
  Kd: ≥ 20 µM
HLA-B*15:01 [7]
  Kd: ≥ 20 µM
HLA-B*08:01
  Kd: ≥ 20 µM
HLA-A*31:01
  Kd: ≥ 20 µM
HLA-A*02:01
  Kd: ≥ 20 µM
HLA-A*69:01
  Kd: ≥ 20 µM
HLA-A*01:01
  Kd: ≥ 20 µM
HLA-B*07:02
  Kd: ≥ 20 µM

## YIYDTAFKY
HLA-A*26:01 [8]
  Kd: 0.265 µM
HLA-A*03:01 [9]
  Kd: 3.83 µM
HLA-B*15:01 [10]
  Kd: 0.173 µM
